Measurements as given in publication PMC10939263.

Key:
C1-fused SRC kinases = test: split reporter (BiFC, NanoBiT); Gaussia princeps luciferase complementation assay in human HEK293T cells; Gluc2 at the N terminus of SKAP1 or SKAP2 (N2), Gluc1 at the N terminus (N1) or C terminus (C1) of the SRC kinase; 100 ng plasmid pair, PEI; luminescence read in lysate one day later; normalized luminescence ratio (NLR), given relative to wild type or to SKAP2
N1-fused SRC kinases = test: as above

B1: SKAP1 D120K mutant, N2-fused (natural protein)
chain: MQAAALPEEIRWLLEDAEEFLAEGLRNENLSAVARDHRDHILRGFQQIKARYYWDFQPQGGDIGQDSSDDNHSGTLGLSLTSDAPFLSDYQDEGMEDIVKGAQELDNVIKQGYLEKKSKKHSFFGSEWQKRWCVVSRGLFYYYANEKSKQPKGTFLIKGYGVRMAPHLRRDSKKESCFELTSQDRRSYEFTATSPAEARDWVDQISFLLKDLSSLTIPYEEDEEEEEKEETYDDIDGFDSPSCGSQCRPTILPGSVGIKEPTEEKEEEDIYEVLPDEEHDLEEDESGTRRKGVDYASYYQGLWDCHGDQPDELSFQRGDLIRILSKEYNMYGWWVGELNSLVGIVPKEYLTTAFEVEER
- wild-type normalized NLR, mean over SRC kinases (C1-fused SRC kinases): 1.49
- wild-type normalized NLR, mean over SRC kinases (N1-fused SRC kinases): 1.17

B2: SKAP1 ΔLink1PH deletion mutant, N2-fused (natural protein)
chain: MQAAALPEEIRWLLEDAEEFLAEGLRNENLSAVARDHRDHILRGFQQIKARYYWDFQPQGGDIGQDDLSSLTIPYEEDEEEEEKEETYDDIDGFDSPSCGSQCRPTILPGSVGIKEPTEEKEEEDIYEVLPDEEHDLEEDESGTRRKGVDYASYYQGLWDCHGDQPDELSFQRGDLIRILSKEYNMYGWWVGELNSLVGIVPKEYLTTAFEVEER
- wild-type normalized NLR, mean over SRC kinases (C1-fused SRC kinases): 0.96
- wild-type normalized NLR, mean over SRC kinases (N1-fused SRC kinases): 1.57

B3: SKAP1 ΔPH deletion mutant, N2-fused (natural protein)
chain: MQAAALPEEIRWLLEDAEEFLAEGLRNENLSAVARDHRDHILRGFQQIKARYYWDFQPQGGDIGQDSSDDNHSGTLGLSLTSDAPFLSDYQDEGMEDIVKGAQELDDLSSLTIPYEEDEEEEEKEETYDDIDGFDSPSCGSQCRPTILPGSVGIKEPTEEKEEEDIYEVLPDEEHDLEEDESGTRRKGVDYASYYQGLWDCHGDQPDELSFQRGDLIRILSKEYNMYGWWVGELNSLVGIVPKEYLTTAFEVEER
- wild-type normalized NLR, mean over SRC kinases (C1-fused SRC kinases): 0.87
- wild-type normalized NLR, mean over SRC kinases (N1-fused SRC kinases): 1.35

B4: SKAP1 ΔSH3 mutant, N2-fused (domain or fragment)
chain: MQAAALPEEIRWLLEDAEEFLAEGLRNENLSAVARDHRDHILRGFQQIKARYYWDFQPQGGDIGQDSSDDNHSGTLGLSLTSDAPFLSDYQDEGMEDIVKGAQELDNVIKQGYLEKKSKDHSFFGSEWQKRWCVVSRGLFYYYANEKSKQPKGTFLIKGYGVRMAPHLRRDSKKESCFELTSQDRRSYEFTATSPAEARDWVDQISFLLKDLSSLTIPYEEDEEEEEKEETYDDIDGFDSPSCGSQCRPTILPGSVGIKEPTEEKEEEDIYEVLPDEEHDLEEDESGTRRK
- wild-type normalized NLR, mean over SRC kinases (C1-fused SRC kinases): 2.53
- wild-type normalized NLR, mean over SRC kinases (N1-fused SRC kinases): 1.51

B5: SKAP1 DomDIM mutant, N2-fused (domain or fragment)
chain: MQAAALPEEIRWLLEDAEEFLAEGLRNENLSAVARDHRDHILRGFQQIKARYYWDFQPQGGDIGQDSSDDNHSGTLGLSLTSDAPFLSDYQDEGMEDIV
- wild-type normalized NLR, mean over SRC kinases (C1-fused SRC kinases): 0.32
- wild-type normalized NLR, mean over SRC kinases (N1-fused SRC kinases): 0.11

B6: SKAP1 Link2SH3 mutant, N2-fused (domain or fragment)
chain: SSLTIPYEEDEEEEEKEETYDDIDGFDSPSCGSQCRPTILPGSVGIKEPTEEKEEEDIYEVLPDEEHDLEEDESGTRRKGVDYASYYQGLWDCHGDQPDELSFQRGDLIRILSKEYNMYGWWVGELNSLVGIVPKEYLTTAFEVEE
- wild-type normalized NLR, mean over SRC kinases (C1-fused SRC kinases): 0.51
- wild-type normalized NLR, mean over SRC kinases (N1-fused SRC kinases): 0.29

B7: SKAP1 W333K mutant, N2-fused (natural protein)
chain: MQAAALPEEIRWLLEDAEEFLAEGLRNENLSAVARDHRDHILRGFQQIKARYYWDFQPQGGDIGQDSSDDNHSGTLGLSLTSDAPFLSDYQDEGMEDIVKGAQELDNVIKQGYLEKKSKDHSFFGSEWQKRWCVVSRGLFYYYANEKSKQPKGTFLIKGYGVRMAPHLRRDSKKESCFELTSQDRRSYEFTATSPAEARDWVDQISFLLKDLSSLTIPYEEDEEEEEKEETYDDIDGFDSPSCGSQCRPTILPGSVGIKEPTEEKEEEDIYEVLPDEEHDLEEDESGTRRKGVDYASYYQGLWDCHGDQPDELSFQRGDLIRILSKEYNMYGKWVGELNSLVGIVPKEYLTTAFEVEER
- wild-type normalized NLR, mean over SRC kinases (C1-fused SRC kinases): 1.24
- wild-type normalized NLR, mean over SRC kinases (N1-fused SRC kinases): 1.16
